According to article PMC10567788, “Asymmetric gating of a human hetero-pentameric glycine receptor” (Nature Communications, 2023):

Experiments:
[1] = target: human glycine receptor β subunit, cryo-EM construct βem (human); experiment: cryo-EM structure; α1emβem GlyR co-expressed and co-purified through the PA tag on βem; single-particle cryo-EM in 0.06% digitonin, 20 mM Tris pH 8.0, 200 mM NaCl; apo and with 2 mM glycine (states apo, gly-1 open, gly-2 expanded open, gly-3 desensitized)
[2] = target: the molecule itself; experiment: as above

Sequence of human glycine receptor β subunit, cryo-EM construct βem (human) (P48167 whole entry): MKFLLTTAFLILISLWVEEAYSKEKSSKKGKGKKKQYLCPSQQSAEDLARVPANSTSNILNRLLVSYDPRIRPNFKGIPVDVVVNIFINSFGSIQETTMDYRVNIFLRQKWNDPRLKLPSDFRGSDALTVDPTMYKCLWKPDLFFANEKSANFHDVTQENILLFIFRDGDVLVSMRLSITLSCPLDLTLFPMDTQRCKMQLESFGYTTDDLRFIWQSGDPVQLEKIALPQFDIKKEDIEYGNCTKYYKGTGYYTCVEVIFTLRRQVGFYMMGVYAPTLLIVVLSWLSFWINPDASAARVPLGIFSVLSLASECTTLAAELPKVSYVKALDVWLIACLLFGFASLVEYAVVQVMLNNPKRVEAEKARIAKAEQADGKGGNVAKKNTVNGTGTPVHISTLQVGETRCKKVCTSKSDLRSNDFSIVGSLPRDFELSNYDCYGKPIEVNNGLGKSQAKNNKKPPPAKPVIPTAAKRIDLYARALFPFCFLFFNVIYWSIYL

B1: human glycine receptor α1 subunit, cryo-EM construct α1em (receptor)
chain: ARSAPKPMSPSDFLDKLMGRTSGYDARIRPNFKGPPVNVSCNIFINSFGSIAETTMDYRVNIFLRQQWNDPRLAYNEYPDDSLDLDPSMLDSIWKPDLFFANEKGAHFHEITTDNKLLRISRNGNVLYSIRITLTLACPMDLKNFPMDVQTCIMQLESFGYTMNDLIFEWQEQGAVQVADGLTLPQFILKEEKDLRYCTKHYNTGKFTCIEARFHLERQMGYYLIQMYIPSLLIVILSWISFWINMDAAPARVGLGITTVLTMTTQSSGSRASLPKVSYVKAIDIWMAVCLLFVFSALLEYAAVNFVSRQHKELLGSSGEEMRKLFIQRAKKIDKISRIGFPMAFLIFNMFYWIIYKIVRREDVHNQ
notes: human glycine receptor α1, NCBI NP_001139512.1, the part before the M3/M4 loop (residues up to L315); linker that replaces the M3/M4 loop residues R316-P381; human glycine receptor α1, NCBI NP_001139512.1, the part after the replaced M3/M4 loop (E382 to the C-terminal Q429); Four copies stand in each α1emβem pentamer; also called GlyR α1; α subunit; source: HEK293S GnTI- cells, BacMam baculovirus …
[1]
  stoichiometry N (α1 subunits per β subunit): 4
[2]
  binding result: binds
